Two molecules from publication PMC5641094, “A peptide antagonist of Prep1-p160 interaction improves ceramide-induced insulin resistance in skeletal muscle cells” (Oncotarget, 2017) can be followed below.

What is called IC50 is the concentration needed to halve the response being measured.

The target of experiment [1] is T1, His6-tagged p160(20-160) (UniProt Q7TPV4 20-160).
T1 construct: also called His6-p160(20-160); p160(20-160) domain
T1 sequence (looked up): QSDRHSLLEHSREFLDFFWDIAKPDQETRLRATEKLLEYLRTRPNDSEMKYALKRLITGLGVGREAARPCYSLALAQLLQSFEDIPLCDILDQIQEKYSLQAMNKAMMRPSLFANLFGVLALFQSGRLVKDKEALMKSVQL
The experiment in a line: ELISA; competition ELISA: plate coated with Prep1(45-155) (0.1 uM); His6-tagged p160(20-160) at 0.25 uM pre-incubated with peptides at 0.001-10 uM; detection with anti-His HRP-conjugated antibody. Conditions: both partners purified. A general note: In an ELISA, binding on a coated surface is turned into a signal by an enzyme label.

Experiment [2] concerns the target Prep1 (Pbx regulating protein 1), endogenous in L6 cells (rat (endogenous in L6)).

B1: Prep1(54-72) peptide (peptide)
peptide: Ac-KQAIYRHPLFPLLALLFEK-NH2
notes: Prep1 (Pbx regulating protein 1), stretch of the HR1 domain, named residues 54-72; Brought into L6 cells in the presence of liposomes for the cell experiments; source: synthetic peptide (Fmoc solid phase, RP-HPLC purified)
With B1, the IC50 in experiment [1] stood at 200 nM.

B2: p160 myb binding protein, endogenous in L6 cells (natural protein)
chain: MAEMKSPTKAEPASPAEAPQGDRRSLLEHSREFLDFFWDIAKPDQETRLRATEKLLEYLRTRPSDSEMKYALKRLITGLGVGREAARPCYSLALAQLLQSFEDIQLCDILGQIQEKYNLQAMNKAMMRPTLFANLFGVLALFQSGRLVKDKEALMKCVRLLKILSHHYNHLQGQPVKALVDILSEVPESMFQEILPKVLKGDMKVILSSPKYLELFLLARQRVPAELESLVGSVDLFSEDNIPSLVNILKVAANSVKKEQKLPDVALNLLRLALQENKFERFWKEVLEEGLLKKPSYTSSYMCFRLLGASLPLLSDEQLQLVMRGDLIRHFGEHMVVSKSQNPLRFIPEISAYVGTFLEGCQDDPKRQFTVMVAFTAITNQGLPVMPTFWRVTRFLNTEALQNYVTWLRDMFLQPDLDSLVDFSTANQKRVQVASLNVPERTVFRLRKWIIHRLVSLVDHLHLEKDEAVVEQIARFCLFHAFFKTKKATPQIPETKQHFSFPLEDGNRGVIVSAFFSLLQTLSVKFRQTPDLAENGKPWTYRLVQLADMLLKHNRNVANVTPLTAQQRQAWDQMMSTLKELEAQSSETRAIAFQHLLLLVGLHLFKSPAESCDVLGDIQTCIKKSMEQNLRRSRSRAKASQEPVWVEVMVEILLSLLAQPSNLMRQVVRSVFGHVCSHLTPRGLQLILAVLNPETNEDEEDNVVVTDTDEKQLKHGEDADSDSEDSKNSESDVDSEDGEESEEEDRDKDVDPGFRQQLMEVLQAGNALGGEEEEEEELGDEAMMALDQNLASLFAEQKMRIQARHEEKNKLQKEKQLRRDFQIRALDLIEVLVTKQPEHPLILELLEPLLNIIQRSMRSRGSTKQEQDLLHKTARIFMHHLCRARHYCHEVEPGAEALHAQVERLVQQAGNQADASVALYYFNASLYLLRVLKGNTTKRYQDGQKLEGADIKSEPKDSEVQTTSCLDLDFVTRVYSASLESLLTKRNSPLTIPMFLDLFSRYPVICKNLLPIVVQHVAGSSRPRHQAQACLLLQKALSARELRVCFEDPEWEQLISQVLGKTTQTLQTLGEAQSKGEHQRELSILELLNTVFRIVNHEKLSVDLTAFLGMLQGKQQKLQQNLQQGNHSSGSSRLYDLYWQAMNLLGVQRPKSEKKNVKDIPSDSQSPISTKRKKKGFLPETKKRKKLKSEGTTSEKKAASQQDAVTEGAMPAATGKDQPPSTGKKRRKRVKANTPSQVNGVTVAKSPAPNNPTLSPSTPPAKTPKVQKKKEKLSQVNGSTPVSPVEPESKKHQKALSTKEVKRRSSQSALPKKRARLSLVSRSPSLLQSGIRKRRVARRRVQTP
As to B2, the decrease in p160 protein level in C2cer-treated L6 cells incubated with Prep1(54-72), Western blot in experiment [2] came to 25%.
